Positions count from the first letter of the chain named.
Key:
[1] = tested on: T1, dCas12j-8 E547R E547R;D369A;E567A;D658A (bacteriophage (metagenome)); details: HEK293T cells; panel 1c (compare within a panel only); scale: mean GFP / mean GFP of wild type, printed, no background subtraction
T1 sequence: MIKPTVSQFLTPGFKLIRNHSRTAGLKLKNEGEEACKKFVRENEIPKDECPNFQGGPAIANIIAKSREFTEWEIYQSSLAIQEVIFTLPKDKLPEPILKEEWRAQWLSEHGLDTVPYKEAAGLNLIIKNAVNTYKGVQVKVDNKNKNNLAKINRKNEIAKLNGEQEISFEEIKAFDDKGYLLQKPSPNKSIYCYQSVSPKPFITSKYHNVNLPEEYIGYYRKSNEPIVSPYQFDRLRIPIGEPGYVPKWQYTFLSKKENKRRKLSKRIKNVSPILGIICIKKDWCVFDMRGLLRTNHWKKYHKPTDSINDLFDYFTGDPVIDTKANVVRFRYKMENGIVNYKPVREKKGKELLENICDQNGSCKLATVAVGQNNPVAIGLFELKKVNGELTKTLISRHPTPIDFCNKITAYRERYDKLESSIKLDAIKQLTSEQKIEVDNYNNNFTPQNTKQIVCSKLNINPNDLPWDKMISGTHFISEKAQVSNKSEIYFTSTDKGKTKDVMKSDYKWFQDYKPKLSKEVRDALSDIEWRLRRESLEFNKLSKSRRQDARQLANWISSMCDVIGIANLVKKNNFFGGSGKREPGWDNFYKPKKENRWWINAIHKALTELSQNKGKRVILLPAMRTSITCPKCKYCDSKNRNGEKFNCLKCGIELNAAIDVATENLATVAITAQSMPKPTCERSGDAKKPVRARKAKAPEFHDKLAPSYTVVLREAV

[2] = tested on: T2, dCas12j-8 D313R D313R;D369A;E567A;D658A (bacteriophage (metagenome)); details: HEK293T cells; panel 1c (compare within a panel only); scale: mean GFP / mean GFP of wild type, printed, no background subtraction
T2 sequence: T1 sequence with D313R, R547E

[3] = tested on: T3, dCas12j-8 E258R+D495R E258R;D495R;D369A;E567A;D658A (bacteriophage (metagenome)); details: HEK293T cells; panel 1d (compare within a panel only); scale: mean GFP / mean GFP of wild type, printed, no background subtraction
T3 sequence: T1 sequence with E258R, D495R, R547E

Question: For “CUUUCAAGACUAAUAGAUUGCUCCUUACGAGGAGACACUCCCUAUCAGUGAUAGAG / TTNACTCCCTATCAGTGATAGAG / CTCTATCACTGATAGGGAGTNAA [TetO]”, which binding signal [1] is on record?
Answer: Its binding signal is 1.22.

Question: And the binding signal [2]?
Answer: Its binding signal is 1.59.

Question: And the binding signal [3]?
Answer: Its binding signal is 3.18.
